Test results taken from patent US20060122119A1 (INSTITUT NAT L DE LA SANTE ET DE LA RECHERCHE MED, published 2006).

B1: tyrosinase peptide 312-320 LPSSADVEF (peptide)
peptide: LPSSADVEF
notes: synthetic peptide
B2: NY-ESO-1 peptide 94-104 MPFATPMEAEL (peptide)
peptide: MPFATPMEAEL
notes: synthetic peptide; also called 11-mer 94-104
B3: NY-ESO-1 peptide 94-103 MPFATPMEAE (peptide)
peptide: MPFATPMEAE
notes: synthetic peptide; also called decamer 94-103
B4: tyrosinase peptide 309-320 TPRLPSSADVEF (peptide)
peptide: TPRLPSSADVEF
notes: synthetic peptide; also called 12-mer 309-320
B5: NY-ESO-1 peptide 92-104 LAMPFATPMEAEL (peptide)
peptide: LAMPFATPMEAEL
notes: synthetic peptide; also called 13-mer 92-104
B6: NY-ESO-1 peptide 94-102 MPFATPMEA (peptide)
peptide: MPFATPMEA
notes: synthetic peptide; also called nonamer 94-102
B7: modified Melan-A peptide 26-34 EAAGIGILY (peptide)
peptide: EAAGIGILY
notes: synthetic modified peptide
B8: modified Melan-A peptide 26-34 EPAGIGILY (peptide)
peptide: EPAGIGILY
notes: synthetic modified peptide
B9: tyrosinase peptide 309-322 TPRLPSSADVEFCL (peptide)
peptide: TPRLPSSADVEFCL
notes: synthetic peptide; also called 14-mer 309-322
B10: gp100 peptide 471-479 VPLDCVLYR (peptide)
peptide: VPLDCVLYR
notes: synthetic peptide
B11: gp100 peptide 471-480 VPLDCVLYRY (peptide)
peptide: VPLDCVLYRY
notes: synthetic peptide
B12: tyrosinase peptide 309-321 TPRLPSSADVEFC (peptide)
peptide: TPRLPSSADVEFC
notes: synthetic peptide; also called 13-mer 309-321
B13: MAGE-A6 peptide 168-176 EVDPIGHVY (peptide)
peptide: EVDPIGHVY
notes: synthetic peptide
B14: NY-ESO-1 peptide 92-103 LAMPFATPMEAE (peptide)
peptide: LAMPFATPMEAE
notes: synthetic peptide; also called 12-mer 92-103
B15: gp100 peptide 470-479 QVPLDCVLYR (peptide)
peptide: QVPLDCVLYR
notes: synthetic peptide, 70% purity

molecular target: HLA-B*3501 (human)

Stability (half-life of the peptide on HLA-B*35) [h]	Binder
6	B1
> 6	B2
> 6	B3
> 6	B4
> 6	B5
> 6	B6
> 6	B7
> 6	B8
> 6	B9
< 0.5	B10
> 6	B11
< 0.5	B12
6	B13
> 6	B14

molecular target: HLA-B*3501 (human); remark: another data set of the same source

binding result	Binder
no binding	B15

molecular target: HLA-B*3501 (human); remark: another data set of the same source

RA (relative affinity)	Binder
1.25	B1
1.32	B2
1.3	B4
0.58	B5
0.4	B6
1.32	B7
0.4	B8
> 20	B9
20	B10
2.6	B11
16.7	B12
1.1	B13
